Measurements as given in patent US8106168B2, “Metalloproteinase binding proteins” (Dyax Corp., priority 2005, dated 2012).

B1: M0041-H09: Fab that binds human MMP-14; DNA LV SEQ ID NO: 118, HV SEQ ID NO: 119 (antibody, V domains shown)
VL: QDIQMTQSPGTLSLSPGERATLSCRASQSLSGDYLAWYQQKIGQAPRLLIFGASRRPTGIPDRFSGSGSGTDFALTISRLEPEDFAVYYCQQYGSLITFGQGTRLEIK
VH: EVQLLESGGGLVQPGGSLRLSCAASGFTFSVYEMTWVRQAPGKGLEWVSGIGSSGGMTFYADSVKGRFTISRDNSKNTLYLQMNSLRAEDTAVYYCARIRYSGSYGWHYMDVWGKGTTVTVSS
modifications: Synthetically generated oligonucleotide
B2: M0041-A05: Fab that binds human MMP-14; DNA LV SEQ ID NO: 104, HV SEQ ID NO: 105 (antibody, V domains shown)
VL: QDIQMTQSPSSLSASVGDRVTITCRASQNINSYLNWYQQKPGKAPKLLIYAASSLQSGVPSRFSGSGSGTDFTLTISSLQPEDFVTYYCQQSYSTPKTFGQGTKVEIK
VH: EVQLLESGGGLVQPGGSLRLSCAASGFTFSVYTMHWVRQAPGKGLEWVSVIYPSGGLTIYADSVKGRFTISRDNSKNTLYLQMNSLRAEDTAVYYCARNRGYYAPMDVWGQGTTVTVSS
modifications: Synthetically generated oligonucleotide
B3: M0040-H04: Fab that binds human MMP-14; DNA LV SEQ ID NO: 100, HV SEQ ID NO: 101 (antibody, V domains shown)
VL: QDIQMTQSPDSLAVSLGERATLNCRSSQSVLYSPNNKNYLAWYQQKAGQPPKLLIYWASFRESGVPERFSGSGSGTDFTLTISSLQAEDVAVYYCQQYHTPPWTFGQGTKVEIK
VH: EVQLLESGGGLVQPGGSLRLSCAASGFTFSSYDMVWVRQAPGKGLEWVSSISPSGGNTQYADSVKGRFTISRDNSKNTLYLQMNSLRAEDTAVYYCAKVAAMAPWYFDYWGQGTLVTVSS
modifications: Synthetically generated oligonucleotide
B4: M0041-B11: Fab that binds human MMP-14; DNA LV SEQ ID NO: 108, HV SEQ ID NO: 109 (antibody, V domains shown)
VL: QSVLTQDPAVSVALGQTVRITCQGDSLRSYSASWYQRKPGQAPLLVIYRKTNRPSGIPDRFSGSSSGNTASLTITGAQAEDESDYYCNSRDSSGNHLFGGGTKLTVL
VH: EVQLLESGGGLVQPGGSLRLSCAASGFTFSQYSMHWVRQAPGKGLEWVSSIVPSGGMTAYADSVKGRFTISRDNSKNTLYLQMNSLRAEDTAVYYCAKISRGNDAFDIWGQGTMVTVSS
modifications: Synthetically generated oligonucleotide
B5: M0040-H09: Fab that binds human MMP-14; DNA LV SEQ ID NO: 102, HV SEQ ID NO: 103 (protein)
chain 1: QSELTQDPAVSVALGQAVIITCQGDSLRTYYPSWYQQKPGQAPTLLVYGKNKRPSGVPDRFSGSRSGDTASLIITGAQAEDDADYYCNSRDGSGHLFVFGPGTTVTVL
chain 2: EVQLLESGGGLVQPGGSLRLSCAASGFTFSLYPMQWVRQAPGKGLEWVSYIRSSGGKTHYADSVKGRFTISRDNSKNTLYLQMNSLRAEDTAVYYCARVGMGSGWYTGYFDLWGRGTLVTVSS
modifications: Synthetically generated oligonucleotide
B6: M0041-C11: Fab that binds human MMP-14; DNA LV SEQ ID NO: 110, HV SEQ ID NO: 111 (antibody, V domains shown)
VL: QDIQMTQSPSSLSASVGDRVTITCRASQRIGSYLNWYQQNSGKAPRLLIYGASNLESGVPSRFSGRGSGTDFTLTISSLQPEDFATYYCQQSNSTPHTFGQGTKVEIK
VH: EVQLLESGGGLVQPGGSLRLSCAASGFTFSQYPMSWVRQAPGKGLEWVSSIGPGGWTWYADSVKGRFTISRDNSKNTLYLQMNSLRAEDTAVYYCARTATRIFGVVIMGRAFDIWGQGTMVTVSS
modifications: Synthetically generated oligonucleotide
B7: M0041-D03: Fab that binds human MMP-14; DNA LV SEQ ID NO: 112, HV SEQ ID NO: 113 (antibody, V domains shown)
VL: QDIQMTQSPSSLSASVGDRITVTCRASQSITNYLNWYQQKPGKAPKLLIYAASTLQSGVPSRFSGSGSGTDFTLTISRLEPEDFAVYYCQQYGSSPTFGQGTKVEVK
VH: EVQLLESGGGLVQPGGSLRLSCAASGFTFSFYNMTWVRQAPGKGLEWVSSIYSSGGNTDYADSVKGRFTISRDNSKNTLYLQMNSLRAEDTAVYYCARDSLSHYYYGMDVWGQGTTVTVSS
modifications: Synthetically generated oligonucleotide
B8: M0040-G04: Fab that binds human MMP-14; DNA LV SEQ ID NO: 98, HV SEQ ID NO: 99 (antibody, V domains shown)
VL: QSVLTQPPSASGTPGQRVTISCSGSRTNIGSDYVYWYQQLPGTAPKLLIYRNNERPSGVPDRFSGFKSGTSASLAISGLRSEDEADYYCASWDDRLSGPVFGGGTKLTVL
VH: EVQLLESGGGLVQPGGSLRLSCAASGFTFSQYHMLWVRQAPGKGLEWVSVIVSSGGFTFYADSVKGRFTISRDNSKNTLYLQMNSLRAEDTAVYYCARSYGGDAFDIWGQGTMVTVSS
modifications: Synthetically generated oligonucleotide
B9: M0041-H11: Fab that binds human MMP-14; DNA LV SEQ ID NO: 120, HV SEQ ID NO: 121 (antibody, V domains shown)
VL: QSELTQDPAVSVALGQTVRITCQGDSLRSYYASWYQQKPGQAPVLVIYGKNNRPSGIPDRFSGSSSGNTASLTITGAQAEDEADYYCNSRDSSGNHVVFGGGTKLTVL
VH: EVQLLESGGGLVQPGGSLRLSCAASGFTFSMYPMNWVRQAPGKGLEWVSSISSSGGWTKYADSVKGRFTISRDNSKNTLYLQMNSLRAEDTAVYYCARVFFGYDSSGYPYYYYGMDVWGQGTTVTVSS
modifications: Synthetically generated oligonucleotide
B10: M0040-F03: Fab that binds human MMP-14; DNA LV SEQ ID NO: 96, HV SEQ ID NO: 97 (antibody, V domains shown)
VL: QDIQMTQSPLSLPVTPGEPASISCRSGQSLLHSNGYNYLNWYLQKPGQSPQLLIYLGSYRASGVPDRFSGSGSGTDFTLKISRVEAEDVGLYYCMQALQTPLTFGVGTKVEIK
VH: EVQLLESGGGLVQPGGSLRLSCAASGFTFSMYVMSWVRQAPGKGLEWVSSISSSGGNTGYADSVKGRFTISRDNSKNTLYLQMNSLRAEDTAVYYCAKSSLYYDILAGPGFDYWGQGTLVTVSS
modifications: Synthetically generated oligonucleotide
B11: M0041-E11: Fab that binds human MMP-14; DNA LV SEQ ID NO: 116, HV SEQ ID NO: 117 (protein)
chain 1: QDIQMTQSPSSLSAFVGDRVIITCRASQDISVYVNWYQQSSGKAPKLLIYGASSLQSGVPSRFSGSGSGTDFTLTISSLQPEDFASYFCQQSYNLPFTFGGGTNVQIK
chain 2: EVQLLESGGGLVQPGGSLRLSCAASGFTFSQYNMQWVRQAPGKGLEWVSGIVPSGGWTPYADSVKGRFTISRDNSKNTLYLQMNSLRAEDTAVYYCARGVRYGLDYWGQGTLVTVSS
modifications: Synthetically generated oligonucleotide
B12: M0041-B03: Fab that binds human MMP-14; DNA LV SEQ ID NO: 106, HV SEQ ID NO: 107 (antibody, V domains shown)
VL: QDIQMTQSPATLSASVGDRVTISCRASQNISNWLAWYQQKPGKAPKLLIYTASTLHRGVPSRFSGSGSGTDFTLTITSLQPEDFATYYCQQANTFPWTFGQGTKVEIK
VH: EVQLLESGGGLVQPGGSLRLSCAASGFTFSMYMMWWVRQAPGKGLEWVSVISSSGGFTSYADSVKGRFTISRDNSKNTLYLQMNSLRAEDTAVYYCARLRYSNFVGGLDVWGQGTTVTVSS
modifications: Synthetically generated oligonucleotide

Biological target: MMP-14 (Homo sapiens, UniProt P50281)
Assay: Selection and phage ELISA screening of anti-MMP-14 Fabs
Format: binding
Conditions: Fab from FAB310 phage display library
Description: Strategy I: A 100-fold excess of the FAB310 library (e.g., an amount of the library that should contain 100 copies of each library member) was depleted of streptavidin-binding antibodies by incubating the library with 200 μL of streptavidin beads for 1 hour at room temperature (RT) with rotation. 500 nM of biotinylated MMP-14 was coupled to streptavidin beads by incubation with 100 μL of streptavidin beads. The MMP-14 beads were then incubated with the streptavidin-depleted library for 1 hour at RT with rotation. The beads were then rinsed three times with 2% MTRIS/0.1% Tween, transferred to a fresh tube and washed an additional three times with 2% MTRIS/0.1% Tween, and transferred to a fresh tube and washed a final time with Round 1 TRIS buffer (50 mM TRIS; 50 mM CaCl2; 150 mM NaCl, pH 7.5).
MMP-14 binding antibodies were eluted from the beads by re-suspension in 1 mL 2% MTRIS containing 2.5 μM TIMP-2 and incubation for 1 hour at RT with rotation. The beads were then washed three times with 2% MTRIS/0.1% Tween, transferred to a fresh tube and washed three times with TRIS/0.1% Tween, and transferred to a fresh tube and washed a final time with TRIS. 1 mL output was used for infection of 9 mL TG1 bacteria (grown to OD600=0.5). The beads were further eluted by suspension in 1 mL 100 mM TEA for 10 minutes. The supernatant was neutralized with 500 μl TRIS/HCl pH 7.5. 1 mL of the second elution was used for infection of 9 mL TG1 bacteria (grown to OD600=0.5).
Two additional rounds of selection were carried out under the same conditions as the first round, except that the streptavidin beads were loaded with 100 nM biotinylated MMP-14 and the number of washes were doubled (6 times with 2% MTRIS/0.1% Tween, 6 times with TRIS/0.1% Tween and 2 times with TRIS), and Round 2/3 Tris buffer (50 mM TRIS; 5 mM CaCl2; 150 mM NaCl pH=7.5) was used for incubation and wash.
TIMP-2 was coupled to carboxylic beads, then complexed with a combination of biotinylated MMP-14 (500 nM each). The complexed beads were incubated with a 100 fold excess of FAB310 library that had been previously depleted by incubation with streptavidin beads and carboxylic beads. Elution/washing was carried out as for Strategy I.
Two additional rounds of selection were carried out, essentially as described for Strategy I, except that only 100 nM of each of MMP-14 were used in the bead complexes.
384-well plates were coated with biotinylated BSA (2 μg/ml in 50 mM TRIS; 5 mM CaCl2; 150 mM NaCl, pH 7.5), then washed 3 times with 50 mM TRIS; 5 mM CaCl2; 150 mM NaCl, pH 7.5; 0.1% Tween. Streptavidin was captured on the coated plates by incubation with 10 μg/mL streptavidin in 50 mM TRIS; 5 mM CaCl2; 150 mM NaCl pH 7.5; 0.5% Gelatin, followed by a wash with 50 mM TRIS; 5 mM CaCl2; 150 mM NaCl pH=7.5; 0.1% Tween. On the day the assay was to be performed, biotinylated MMP-14 (1 μg/ml) was captured in 50 mM TRIS; 5 mM CaCl2; 150 mM NaCl, pH 7.5.
95 clones were picked from each of Round 2 and Round 3 of each selection strategy, producing 12 masterplates. ELISA was run on the MiniTrak-5 deck according to SOP.

Molecule | bind to human MMP-14
B1 | bind to human MMP-14
B2 | bind to human MMP-14
B3 | bind to human MMP-14
B4 | bind to human MMP-14
B5 | bind to human MMP-14
B6 | bind to human MMP-14
B7 | bind to human MMP-14
B8 | bind to human MMP-14
B9 | bind to human MMP-14
B10 | bind to human MMP-14
B11 | bind to human MMP-14
B12 | bind to human MMP-14
